Series [1] has as its target PvS1FL (full-length Plasmodium vivax subtilisin-like protease 1, Sub1, autoprocessed with bound prodomain) (UniProt E6Y8B9). The series is described as follows: analytical ultracentrifugation, sedimentation equilibrium (Beckman Coulter XL-I, absorbance at 280 nm). The conditions noted are these: 20°C, 150 mM NaCl, 10 mM CaCl2, pH 5: 50 mM NaCit (sodium citrate), pH 8: 50 mM Tris.

Series [2] deals with the molecule itself. Put plainly: AUC; sedimentation equilibrium, pH 5 (50 mM NaCit pH 5, 150 mM NaCl, 10 mM CaCl2), 20°C, 2, 5 and 10 µM protein, 9,000, 13,000 and 16,000 rpm, single-species model.

The stoichiometry N is the number of molecules, sites or subunits per partner or assembly.

Take “PvS1FL (full-length Plasmodium vivax subtilisin-like protease 1, Sub1, autoprocessed with bound prodomain)”: the “apparent molecular weight (single-species fit); oligomeric state” value in series [1] (pH 5) is on record as 135.8 ± 2.8 kDa (stable homodimer; theoretical monomer 67.71 kDa); in series [1] (pH 8) it was 67.9 ± 1.1 kDa (monomer; theoretical monomer 67.71 kDa).

B1: full-length Plasmodium vivax Sub1 (PvS1FL), recombinant, autocleaved at Asp202 (enzyme)
chain 1: GDILPNEGKKEKDDVHKIISELRFLQKVETILESSNMSVSDVEADANAYNPDRDAPKEELQKLQDQQETPSKQPNNLRNSPQKRAEKKESPGKNKKSLRLIVSENHATSPSFFEESLLQEDVVSFIQSKGKLSNLKNLKSMIIDLNSDMTDEELAEYISLLERKGALIESDKLVGAD
chain 2: DVSLASVKDAVRRGESSVNWGKLRSTMLEVPSGESPPSHAASSGSPFDDDDDLLSEAALHREEAHLAGSKTTKGYKFNDEYRNLQWGLDLARLDETQDLINANRVSVTKICVIDSGIDYNHPDLRNNIDVNVKELHGRKGVDDDSNGVVDDVYGANFVNNSGDPMDDNYHGTHVSGIISAVGNNGIGIVGVDGHSKLVICKALDQHKLGRLGDMFKCIDYCISRQAHMINGSFSFDEYSNIFNASVEHLRSLGILFFVSASNCAHDKLSKPDIAKCDLAVNHRYPPILSKTHNNVIAVANLKRDLDESYSLSVNSFYSNIYCQLAAPGTNIYSTTPMNNYRKLNGTSMASPHVAAIASIVRSINPNLTYLQIVEILRNAIVKLPSLTERVSWGGYVDILRAVNLAIDSKAAPYIKSHSWFRWKQGSRR
notes: Prodomain of P. vivax Sub1 up to the primary maturation site Asp202; Catalytic domain of P. vivax Sub1, from the residue after the primary maturation site Asp202 to the C-terminus
For B1, in series [2], the “stoichiometry N” value worked out at 2.
